{
  "source": "the DeepSol protein solubility set",
  "data": [
    {"experiment": "soluble on expression in E. coli; label from the status in PepcDB or PDB records", "values": [
      {"sequence": "KILAVTACPTGIAHTFMAADALKEKAKELGVEIKVETNGSSGIKHKLTAQEIEDAPAIIVAADKQVEMERFKGKRVLQVPVTAGIRRPQELIEKAMNQDAPIY", "soluble on expression in E. coli": "soluble"},
      {"sequence": "MGKLYVFDHPLIQHKITYIRDKNTGTKDFRELVDEVASLMAFEITRDLPLKDIEIETPVSKATTKVIAGKKLGLIPILRAGLGMVDGILKLIPAAKVGHVGLYRDPKTLQPVEYYVKLPTDVEERDFIVLDPMLATGGSAAEAINSLKKRGAKQIKLMCIVAAPEGVKVVQEEHPDVDIYVAALDEKLNDHGYVVPGLGDAGDRLFGTK", "soluble on expression in E. coli": "not soluble"},
      {"sequence": "MSLTYLNHILVIEDDLDAAESLSDMLSIDGFQITTTASVQDAMELLESQRFGVILTDRHLPDGLIEHRLQEILEVSSKTPVIVVTGYSDLQAVILAFRQGISDYVIKPIIPEDLIQTVRRILERRVLEQHLQIEHAFAERIQSTAEAIILVIDFDGRVIHFNRFFTELTGWAQGDLIGENWFDRCIYPEDRDRLINVCDTMSRTDRYRGCTNRIRCKNGEAREIRWSNSKWSEADGGQQFILAIGIDVSDLAEATQRAVRAERLAAIGETVAALAHESRNAIQRINAASEVLAINIRGNVDSEEELSVVQRAASDLSTLLESVRAFAAPIQAKLECADLREIWRRSWDDLECKRSGRDVELVENATSCLHDVKVDVCRMEQLFRNLFLNALEASEGPVRIEIDCECNDEMVCLKVTDDGPGLTAEQSAHLFEPFYTTKPTGTGLGMPICQRIVEAHGGTIAAGNHLNGTEVAICVPRVKAAVLVSEGHHHHHH", "soluble on expression in E. coli": "soluble"},
      {"sequence": "MGSDKIHHHHHHMEMMRDAVQFEPADSRVTRPSFWSSLPERWTSDVEETLVCCHVRQETHDVKSFFFHSPDGRAFVFEPGQFITLELEIEGETINRCYTISSSPARPHTLSITVKRVPGGKVSNWLHDNVRPGTPIRVLGPAGEFTCARHPARKYLFLSAGSGITPLMSMSRAHHDLGEDRDIVFVHSARTPDDIIFSRELDLIASNHANFRTSFVCESVGARTSWPGVTGFLSLPLLKLIAPDFMEREIFTCGPAPYMKAVRDLLDEGGFDRRRYHEESFSFETLTADGPADAPAPDTGVASAPHGIADMAAFSVSFAKSRREIVCSSGQHVLEAARQSGVRLPASCTQGMCGTCKVKLVSGQVEMKHNGGIRQREIDQGMVLLCCSKPLSDLVIDK", "soluble on expression in E. coli": "not soluble"},
      {"sequence": "GMECRPLCIDDLELVCRHREAMFREAGRDALTLAAMQDPFRDWLLPRLADGSYFGWVMEEGGAPLAGIGLMVIEWPPHPSHPLQDKRGYILNLYVDPSHRERGIGQALMNRAEAEFAERGIAFAVLHATEMGQPLYARMGWSPTTEMSKPIAG", "soluble on expression in E. coli": "soluble"},
      {"sequence": "GPGSMSGIKIEEVISTTKKERVAAHSHVKGLGLNPDGTTKHIADGFVGQEKAREAAGIAVELIRSKKMAGRALLFAGPPGTGKTALALGIAKELGPKVPFCPMVGSEVYSAEVKKTEVLMENFRRAIGLRIKENKEVYEGEVTELRAEETDNPLGGYGKSISHVIITLKSQKGSKLLKLDAAIYESLEKEKVSVGDVIYIEASSGAVKRVGRSDAYIGDHDLEADEYVPIPKGDVHKKKEVIQDVTLHDLDMANAKPSQGQDALSIVSSMMRHKKTEVTEKLRQEINKVVNKYIDQGVAELVPGVLFIDEVHMLDIECFTYLNKALESTLAPVVIFATNRGSCRIRGTEIRAPHGMPTDLLDRLLIIRTMNYDVSEITSIVEIRAHVEGVKISEAALTKLGIIGESTSLRFVVQLLTPALIIAETNGREMLEEEDVDLVAELFKDGKASARQLQDHAEEYVYQ", "soluble on expression in E. coli": "soluble"},
      {"sequence": "ANIIANTALTIGATKVDVKEITPELLASLNEIGGSEANVASGYHAIEFLLWGQDLNGTKAGAGARSYTDYLQGKACTNNHCDRRAQYLKAAAQLLVTDLEWMEKQWASGEKDNYRQQLLSESAENGLRKMLFGMGSLSLGELAGERMKVALEANSTEDEHDCFSDNTHNSHYYNEQGIYNIYTGSYTRADGSELKGPSLYQLVAEKDANAAKEILQQFEAARTQVGELVTAAEKNNQHFDQLIAADNAAGHAIINQAIMALVAQTGSIERAAGIIGIDNLNPDTADHEF", "soluble on expression in E. coli": "not soluble"},
      {"sequence": "MTFRNCVAVDLGASSGRVMLARYERECRSLTLREIHRFNNGLHSQNGYVTWDVDSLESAIRLGLNKVCEEGIRIDSIGIDTWGVDFVLLDQQGQRVGLPVAYRDSRTNGLMPQAQQQLGKRDIYQRSGIQFLPFNTLYQLRALTEQQPELIPHIAHALLMPDYFSYRLTGKMNWEYTNATTTQLVNINSDDWDESLLAWSGANKAWFGRPTHPGNVIGHWICPQGNEIPVVAVASHDTASAVIASPLNGSRAAYLSSGTWSLMGFESQTPFTNDTALAANITNEGGAEGRYRVLKNIMGLWLLQRVLQERQINDLPALIAATQALPACRFIINPNDDRFINPDEMCSEIQAACRETAQPIPGSDAELARCIFDSLALLYADVLHELAQLRGEDFSQLHIVGGGCQNTLLNQLCADACGIRVIAGPVEASTLGNIGIELMTLDELNNVDDFRQVVSTTANLTTFTPNPDSEIAHYVAQIHSTRQTKELCA", "soluble on expression in E. coli": "not soluble"},
      {"sequence": "MGSDKIHHHHHHMITVNDMSMQFSDRKLYSDVNLKFTPGNCYGIIGANGAGKSTFLKILEGKLQPTSGNVSISPNERMSSLNQDHYAFEEFTVMNTVIQGYKKLYEVMQAKDALYAKADFTEEDGMKAANLEAEFAEMDGWNAEAEASQLLQQLGIDESLHDSKMSELTEGQRIKVLLGQALFGKPDILILDEPTNGLDPKSISWLEDFLADFPNTVIVVSHDRHFLNSVCTMMCDVDFGKIELFVGNYDFWMESSALAKRLRENANAKKEEQIKELQEFVARFSANASKSKQATSRKKQLDKITLDDIKPSSRKYPFIRFEPARELGNDLVRVDKVSKSIDGVKILDNITFTVRPGEKAAILSQNDLATTVLMQILAGEMEPDSGSVTWGQTTERSYIPRDINSYFEDDRFDILEWLRQYAPKEESDNTFLRGFLGKMLFSGEDVLKNVTKLSGGEKVRCMISKTMLSKANVLILDDPTNHLDLESITALNEGLTSYKSSIIMTSHDHEFIQTIADHIIEVSDKGSVDRAETTYDEFLNHDAIQEQVSKLY", "soluble on expression in E. coli": "not soluble"},
      {"sequence": "MSLNPAYFVLLVEELKTKYLVKDICQILQVPLSTYYRWKKKDFSQSSLEKKIGQLCKAYQFTYGYRKIAALMKQEEQVGINKVQRIMQKYQWQCQVKVKKKNRPGSAYYQTENHLNRNFQASQPLEKLTTDITYLYFGDCRLYLSSIMDLYNGEIVAYSIGEKQDTELVLDTLNQLSLPEGSLLHSDQGSVYTSYEYYQCCKKKNVIRSMSRKGTPADNAPIECFHSSLKCETFYHKTAYKYAKSIVIQIVKDYIKYYNEKRIQQKLGYQSPINFRKQAEGHHHHHH", "soluble on expression in E. coli": "not soluble"},
      {"sequence": "MGSDKIHHHHHHMQQPLAYRMRPRHLDEVVGQQHLVGPGKIIRRMVEAKMLSSMILYGPPGTGKTSIASAIAGSTNYAFRMLNAATDTKKDLQIVAEEAKMSGTVILLLDEIHRLDKTKQDFLLPHLENGRIIMIGATTENPYITINPAIRSRTQIFEVKPLTETDIQQAIQEALTDSTRGLGDYPVHLEEKALQHLTRATNGDLRSALNGLELAVKSTPKNEQGEIKITLPIIEECVQRKALTHVKDGDAHYDVISAFQKSIRGSDVDAALHYLGRLVEAGDLPIICRRLMVIAYEDIGLGNPAAAARTVTAVQAAEKLGFPEARIPLASVVIDLCLSPKSNSAVTAIDAALADIRQGSVGDVPDHLRDAHYAGAKELNRGIGYQYPHNFENGWVNQQYLPDKLKEARYYEPIDIGKYEQALHQQLKRIQEWKQKK", "soluble on expression in E. coli": "not soluble"},
      {"sequence": "MGSDKIHHHHHHMKRIVCPKDYYNEQGLLLSAKGTKITLSQFLRLQRKYDFLSETEANERTLASYEKIKQKICRKDERYKRADDQLLDQASALLVNIVFESKRKPWYMYLTALGNHINWLYTHSIDVALLSLMMAIESGVSQRSLWDLGVGGILHDVGKLLIPKKIIQKRTELSDIEKDILRQHCELGVECTTDCAFPILSQDIIAQHHERLDGSGYPNQLQEGQINEYVKIVMIADAFDTITAGRPYRKTVEVEEALAYLEDQEGAFSRMYLETLKNILVRP", "soluble on expression in E. coli": "not soluble"},
      {"sequence": "MGSDKIHHHHHHMNIKDLKYFYHLSQLQSFTKVAEKFQISQPSVSYSVKRLEEQFNCDLIVKDPSHRTFALTQQGNILKRHLERILPEISSAQKEMNRSLAHYSTLGCPPIIINYLLSLLKETNQDLAFLKRIRSIRGGSVELLEQLLQGDLDLSLIGTIEPFYHDELVIKKILHRKLYLIVSKDHLLAKRKKAIAFADVLKENFILLDEHNIHLKAFDYLNQTHQNQAQIFFKSDDVTLIKQMVSHNMGVSLLTDISLTKQDHHLVKIPFKENNKLGFYVNYAYLKSSTLTPDIRHLVDLLDKIAQSF", "soluble on expression in E. coli": "not soluble"},
      {"sequence": "MAHHHHHHMPKSSPPDEHKVLIKKLTHACASYDSASRKYLTAVKALDSSLEAVAIAIRELSQGEESEDAVTRVDRFCTSVDRHMAGSSAGASFGHNKSGRLSDSAAFNGAEYPFAAYMSDFTREVSSAVDELKEILKKIEKSRSKHDDLVAKYNKKRSEVDTMEMKLAKKNQGIATNEKYSHKLSDRDALKVQVDTGERELRAEFMELLQRRTRILLQVVHGMQTHSSKYYSHLSKAMQA", "soluble on expression in E. coli": "soluble"},
      {"sequence": "MGHHHHHHSHMDVVDPDIFNRDPRDHYDLLQRLGGGTYGEVFKARDKVSGDLVALKMVKMEPDDDVSTLQKEILILKTCRHANIVAYHGSYLWLQKLWICMEFCGAGSLQDIYQVTGSLSELQISYVCREVLQGLAYLHSQKKIHRDIKGANILINDAGEVRLADFGISAQIGATLARRLSFIGTPYWMAPEVAAVALKGGYNELCDIWSLGITAIELAELQPPLFDVHPLRVLFLMTKSGYQPPRLKEKGKWSAAFHNFIKVTLTKSPKKRPSATKMLSHQLVSQPGLNRGLILDLLDKLKNPGKGPSIGDIEDEEPELPPAIPRRIRSTHRSSSLGIPDADCCRRHMEFRKLRGMETRPPANTARLQPPRDLRSSSPRKQLSES", "soluble on expression in E. coli": "soluble"},
      {"sequence": "YTDKYDKINLQEILENKRLLESYMDCVLGKGKCTPEGKELKDHLQEALETGCEKCTEAQEKGAETSIDYLIKNELEIWKELTAHFDPDGKWRKKYEDRAKAKGIVIPE", "soluble on expression in E. coli": "soluble"},
      {"sequence": "KVKWTHEEDEQLRALVRQFGQQDWKFLASHFPNRTDQQCQYRWLRVL", "soluble on expression in E. coli": "soluble"},
      {"sequence": "MGSDKIHHHHHHMSRAITRAQLDKLVRSITKFYPQKYADKSWDNTGLLIDCSTAQVTTADANAKTKVLLTVDLTKSVAQEAVDANCNVIVAYHPFIFPSWNRLSPHTNPQHETAIKLIQYGISVYCPHTAVDAARGGVNDWLVRGLNNGENVAKSYALETVSGETDDLIGYGRFVEFNKDISLEQIVKNVKRVLRVPYVQVASLAAPSAWNQLKIKKVAVCAGSGSGVFKQLKEDVDLYYTGEMSHHEVLKWKEMGKTVIVCNHSNTERGFLQDVMKGLLQDEGHEVVVSKMDCDPLTVA", "soluble on expression in E. coli": "not soluble"},
      {"sequence": "MGHHHHHHSHMSGGEVVCSGWLRKSPPEKKLKRYAWKRRWFVLRSGRLTGDPDVLEYYKNDHAKKPIRIIDLNLCQQVDAGLTFNKKEFENSYIFDINTIDRIFYLVADSEEEMNKWVRCICDICGFNPTEEDPVK", "soluble on expression in E. coli": "not soluble"},
      {"sequence": "KNVWIFAEQREGKIAPVVIELLGEGRKLAKEVDAELCAILLGKDVDGLAKELITFGADKVYVADDALLEKYTTDAYTKVIKDAIDEIKPEIMLFGATHIGRDLAPRIASRVGTGLTADCTKLEIDPEDKKIKQTRPAFGGNIMATIICPNHRPQMSTVRPGVMDKAEKDETRTGEVIALDYKITQDDIRTTVLETV", "soluble on expression in E. coli": "not soluble"},
      {"sequence": "MYQHDIGKRSAKVKNVVERGAVKKFAEAIGDPNPIYWDEETGKRSRYGRNIAPPTFPRVFDYGVIEGLKLPAKGLIHGEQHFHYERPLFVGEELYCYAEVKDYFEKQSSMGLLGFLVIANNGEDADGNLIFTSTSTIMINEAVRKAMSV", "soluble on expression in E. coli": "soluble"}
    ]}
  ]
}
